Source: IntAct's records for PubMed 19154346

B1: Calreticulin (Homo sapiens), P27797 (parent)
chain: MLLSVPLLLGLLGLAVAEPAVYFKEQFLDGDGWTSRWIESKHKSDFGKFVLSSGKFYGDEEKDKGLQTSQDARFYALSASFEPFSNKGQTLVVQFTVKHEQNIDCGGGYVKLFPNSLDQTDMHGDSEYNIMFGPDICGPGTKKVHVIFNYKGKNVLINKDIRCKDDEFTHLYTLIVRPDNTYEVKIDNSQVESGSLEDDWDFLPPKKIKDPDASKPEDWDERAKIDDPTDSKPEDWDKPEHIPDPDAKKPEDWDEEMDGEWEPPVIQNPEYKGEWKPRQIDNPDYKGTWIHPEIDNPEYSPDPSIYAYDNFGVLGLDLWQVKSGTIFDNFLITNDEAYAEEFGNETWGVTKAAEKQMKDKQDEEQRLKEEEEDKKRKEEEEAEDKEDDEDKDEDEEDEEDKEEDEEEDVPGQAKDEL

Variants of: B1
Settings: with gbrap_human GABARAP

| Variant | effect of a mutation on the interaction |
| --- | --- |
| W200A | disrupting interaction |
